Measured values published in patent publication US20160257755A1 (TRACON PHARMACEUTICALS, published 2016).
Changes are numbered by the printed parent chain. Blank lines part the entries; values can stand above or below the binder they belong to.

Experiments:
[1] = molecular target: T1, mouse endoglin, R&D Systems Cat. No. 1320-EN-025 (mouse, UniProt Q63961 27-581); test: direct ELISA on coated mouse endoglin, anti-rat IgG peroxidase detection
T1 construct: Coated directly on the plate at 1 ug/ml; also called murine endoglin
T1 sequence (looked up): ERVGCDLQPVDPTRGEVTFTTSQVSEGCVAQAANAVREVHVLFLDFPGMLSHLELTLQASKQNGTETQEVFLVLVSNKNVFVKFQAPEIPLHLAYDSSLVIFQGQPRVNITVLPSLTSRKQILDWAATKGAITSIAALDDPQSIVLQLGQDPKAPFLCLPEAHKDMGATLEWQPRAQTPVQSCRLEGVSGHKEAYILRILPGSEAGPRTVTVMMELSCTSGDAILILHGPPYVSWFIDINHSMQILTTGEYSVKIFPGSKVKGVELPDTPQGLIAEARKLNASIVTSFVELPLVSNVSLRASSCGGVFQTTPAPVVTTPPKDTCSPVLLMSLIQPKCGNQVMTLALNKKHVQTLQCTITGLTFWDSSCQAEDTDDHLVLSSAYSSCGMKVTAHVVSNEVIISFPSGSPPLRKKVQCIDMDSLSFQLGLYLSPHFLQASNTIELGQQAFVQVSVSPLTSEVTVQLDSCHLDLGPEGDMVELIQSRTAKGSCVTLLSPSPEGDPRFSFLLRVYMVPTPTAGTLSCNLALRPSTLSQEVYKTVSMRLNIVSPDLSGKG
Description: The following day the plate was washed three times with PBST before blocking with PBST/3% Marvel at room temperature for 1 hour. […] Binding of the antibodies was detected via anti-rat IgG peroxidase (Sigma, Cat. No. A9037) and TMB single solution substrate (Invitrogen, Cat. No. 00-2023). The reaction was stopped by adding 3 M HCl and OD450 nm values were measured on a Dynex MRX TCII plate reader.

[2] = molecular target: T1, mouse endoglin, R&D Systems Cat. No. …; test: competition ELISA on coated mouse endoglin, competitor biotinylated M1043 (40 ng/ml)
Description: Nunc Immuno MaxiSorp 96 well flat bottom plates (Fisher Cat. No. DIS-971-030J) were coated with mouse endoglin (R&D Systems, Cat. No. 1320-EN-025) at 1μg/ml in PBS overnight at 4° C. The following day the plate was washed three times with PBST before blocking with PBST/3% Marvel at room temperature for 1 hour. […] Binding of the biotinylated antibody was detected via streptavidin-HRP (Sigma, Cat. No. 55512) and TMB substrate (Sigma, Cat. No. T0440). OD450 nm values were measured on a Dynex MRX TCII plate reader.

[3] = molecular target: T2, human CD105 (endoglin), R&D Systems Cat. No. 1097-EN (human, UniProt P17813 26-586); test: competition ELISA on captured human CD105, human BMP9 against biotinylated TRC205 (55 ng/ml); human BMP9 as competitor, in nM
T2 construct: Bought protein, captured on the plate by mouse anti-human CD105 (Southern Biotechnologies 9811-01); also called human endoglin
T2 sequence (looked up): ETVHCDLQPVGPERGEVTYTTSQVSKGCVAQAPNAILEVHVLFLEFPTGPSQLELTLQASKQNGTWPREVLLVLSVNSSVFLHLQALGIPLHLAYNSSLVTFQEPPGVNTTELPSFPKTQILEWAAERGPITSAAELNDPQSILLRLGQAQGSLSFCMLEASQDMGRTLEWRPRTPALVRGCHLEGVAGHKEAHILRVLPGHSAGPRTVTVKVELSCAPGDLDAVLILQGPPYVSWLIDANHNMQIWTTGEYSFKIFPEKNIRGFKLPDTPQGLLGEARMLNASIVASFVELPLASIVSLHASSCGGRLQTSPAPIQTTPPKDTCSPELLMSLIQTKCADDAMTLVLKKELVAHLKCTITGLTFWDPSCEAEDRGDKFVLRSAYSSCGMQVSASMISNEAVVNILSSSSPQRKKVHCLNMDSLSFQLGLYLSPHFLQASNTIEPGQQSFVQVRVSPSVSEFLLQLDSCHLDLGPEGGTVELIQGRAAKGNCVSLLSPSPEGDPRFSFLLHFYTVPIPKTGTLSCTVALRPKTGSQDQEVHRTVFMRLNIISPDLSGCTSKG
Description: (§1) OD450 nm values were measured on a Dynex MRX TCII plate reader.

[4] = molecular target: T3, recombinant endoglin (BIAcore analyte, Example 2) (UniProt P17813 26-586, limits assumed); test: SPR (BIAcore), antibody captured on protein A, recombinant endoglin as analyte
T3 sequence (looked up): T2 sequence (looked up)
Description: Affinity of antibodies can be assessed using, for example, BIAcore analysis using standard protocols. Briefly, protein A is chemically coupled to a BIAcore CM5 chip, with the amount of protein A immobilized corresponding to 2000 RU. Subsequent steps are performed in a running buffer of 10 mM HEPES, 150 mM NaCl, 3 mM EDTA, 0.05% TWEEN, pH=7.4, at 25 degrees Celsius using a 10 Hz data collection rate. […] Start-up cycles are performed using running buffer at a flow rate of 40 μL/min, a contact time of 90 seconds and a dissociation time of 90 seconds. Sample cycles are performed using recombinant endoglin at concentrations ranging from 0 to 40 nM. Endoglin is passed over the BIAcore chip containing captured antibody at a flow rate of 40 μL/min with a contact time of 525 seconds and dissociation time of 2500 seconds. […] Regeneration of the chip is accomplished using 10 mM glycine pH=1.7. Data analysis is performed using BIAcore T100 Evaluation Software v1.1 Signals generated using BIAcore chips with different captured antibody densities are compared and data generated in the absence of recombinant endoglin are used to adjust for the intraassay blank signal. For fitting of the data, the Rₘₐₓ is allowed to float to account for variation in capture levels of each antibody in each cycle. Data from each capture density is fitted simultaneously during analysis of each antibody.

[5] = molecular target: T2, human CD105 (endoglin), R&D Systems …; test: competition ELISA on captured human CD105, unlabelled TRC205 against biotinylated TRC205 (55 ng/ml); unlabelled TRC205 as competitor, in nM
Description: as §1

[6] = molecular target: T2, human CD105 (endoglin), R&D Systems …; test: direct ELISA, biotinylated TRC205 on human CD105 captured by anti-CD105, streptavidin-HRP detection
Description: as §1

[7] = molecular target: T2, human CD105 (endoglin), R&D Systems …; test: competition ELISA on captured human CD105 against biotinylated chimeric anti-CD105 (6.25 ng/ml); streptavidin-HRP/TMB, absorbance at 450 nm
Description: FIGS. 6A-6F. Anti-CD105 competition ELISA with humanized and humanized/deimmunized antibodies. […] Binding was detected via streptavidin-HRP and TMB substrate. Absorbance (OD) at 450 nm was measured on a plate reader and this was plotted against the test antibody concentration.
as §1

IC50 [3]: 14.6 nM
B3: human BMP9 (R&D Systems Cat. No. 3209-BP-010) (ligand, UniProt Q9UK05 320-429, looked up)
chain: SAGAGSHCQKTSLRVNFEDIGWDSWIIAPKEYEAYECKGGCFFPLADDVTPTKHAIVQTLVHLKFPTKVGKACCVPTKLSPISVLYKDDMGVPTLKYHYEGMSVAECGCR

Kd [4]: 0.6 nM
koff [4]: 3.28e-05 s⁻¹
kon [4]: 54700 M⁻¹ s⁻¹
B4: chimeric anti-endoglin antibody (TRC105) (antibody, V domains shown)
VH: EVKLEESGGGLVQPGGSMKLSCAASGFTFSDAWMDWVRQSPEKGLEWVAEIRSKASNHATYYAESVKGRFTISRDDSKSSVYLQMNSLRAEDTGIYYCTRWRRFFDSWGQGTTLTVSS
VL: QIVLSQSPAILSASPGEKVTMTCRASSSVSYMHWYQQKPGSSPKPWIYATSNLASGVPVRFSGSGSGTSYSLTISRVEAEDAATYYCQQWSSNPLTFGAGTKLELK
notes: also called chimeric anti-CD105; c-SN6j

Kd [4]: 0.706 nM
koff [4]: 3.25e-05 s⁻¹
kon [4]: 46000 M⁻¹ s⁻¹
B8: humanized/deimmunized anti-endoglin antibody VK1AAVH1A2 (antibody, V domains shown)
VH: EVQLVESGGGLVKPGGSLRLSCAASGFTFSDAWMDWVRQAPGKGLEWVGEARSKASNHATYYAESVKGRFTISRDDSKNTLYLQMNSLKTEDTAVYYCTRWRRFFDSWGQGTLVTVSS
VL: DIQMTQSPSSLSASVGDRATITCRASSSVSYMHWYQQKPGKAPKPWAYATSNLASGVPSRFSGSGSGTDYTLTISSLQPEDFATYYCQQWSSNPLTFGGGTKVEIK
notes: It has the same variable domains as TRC205, which is IgG4

binding result [7]: binds
B9: VK2SAVH1S (antibody, V domains shown)
VH: B8 VH with G49S, A51I
VL: B8 VL with M4L, A19V, T22S
notes: humanized/deimmunized anti-endoglin antibody variant

Kd [4]: 0.85 nM
koff [4]: 3.03e-05 s⁻¹
kon [4]: 35600 M⁻¹ s⁻¹
B10: humanized/deimmunized anti-endoglin antibody VK1AAVH1Q (antibody, human IgG1, V domains shown)
VH: B8 VH with A51I, K54Q
VL: B8 VL

binding result [7]: binds
B11: VK2SSVH1S (antibody, V domains shown)
VH: B8 VH with G49S, A51I
VL: B8 VL with M4L, A19V, T22S, A47I, T50S
notes: as for B9

Further lines, the binder ahead of its results:

B1: M1043 antibody (antibody, rat IgG1, V domains shown)
VH: QVQLQQSGAELVKPGSSVKISCKASGYTFTSYDMHWIKQQPGNGLEWIGWIYPGNGNTKYNQKFNGKATLTADKSSSTAYMQLSSLTSEDSAVYFCARGKFGVGDYWGQGVMVTVSS
VL: DTVLTQSPALAVSPGERVSISCRASEGVNSYMHWYQQKPGQQPKLLIYIASNLASGVPARFSGSGSGTDFTLTIDPVEADDTATYFCQQSWNDPYTFGAGTKLELKR
notes: also called Antibody M1043; biotinylated M1043
binding result [1]: binds

B2: mouse BMP9 (R&D Systems, Cat. No. 5566-BP-010) (ligand, UniProt Q9WV56 319-428, looked up)
chain: B3 chain with A2T, G5S, E33D, V84I
binding result [2]: binds

B5: TRC205 antibody (antibody, IgG4, V domains shown)
VH: B8 VH
VL: B8 VL
notes: Humanized and deimmunized IgG4; also called biotinylated TRC205; unlabelled TRC205
IC50 [5]: 1.7 nM
EC50 [6]: 0.046 mg/L

B6: humanized/deimmunized anti-endoglin antibody VK1AAVH1R (antibody, human IgG1, V domains shown)
VH: B8 VH with A51I, K54R
VL: B8 VL
Kd [4]: 0.533 nM
koff [4]: 3.41e-05 s⁻¹
kon [4]: 64000 M⁻¹ s⁻¹

B7: VK2SSVH1Q (antibody, V domains shown)
VH: B8 VH with A51I, K54Q
VL: B8 VL with M4L, A19V, T22S, A47I, T50S
notes: as for B9
binding result [7]: binds
